From patent US20230002466A1 (ELPIS BIOPHARMACEUTICALS, published 2023) come the findings set out here.

Experiment [1] has as its target T1, human IL2Rβ (human, UniProt P14784 27-239).
T1 construct: also called IL2β; CD122
T1 sequence (looked up): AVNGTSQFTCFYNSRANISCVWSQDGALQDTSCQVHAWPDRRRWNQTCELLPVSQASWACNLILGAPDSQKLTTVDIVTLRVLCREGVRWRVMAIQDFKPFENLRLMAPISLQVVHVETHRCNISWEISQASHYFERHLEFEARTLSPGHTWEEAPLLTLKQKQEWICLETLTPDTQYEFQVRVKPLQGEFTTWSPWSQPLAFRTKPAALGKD
Kind of experiment: ELISA, receptor coated, anti-human Fc HRP. On the procedure:
(§1) For bivalent Fc-fusion proteins, human IL2Rα, and human IL2Rβ were each immobilized in a 384 well plate at final concentration of 2 μg/mL in 1×PBS in total volume of 25 μL per well. The plate was incubated overnight at 4° C. followed by blocking with 80 μL of superblock per well for 1 hour. The purified engineered IL2 mutant Fc fusion protein at 100 nM was 3-fold serial diluted 12 times. Each dilution was added to IL2Rα and IL2Rβ wells in parallel. The engineered IL2 mutant binding was detected by adding 50 μL of anti-human Fc HRP diluted at 1:5000 in 1×PBST. In between each step, the plate was washed 3 times with 1×PBST in a plate washer. The plate was then developed with 25 μl of TMB substrate for 5 mins and stopped by adding 25 μl of 2N sulfuric acid. The plate was read at OD450 nm Biotek plate reader and the EC50 was analyzed with Prism 8.1 software.

The target in experiment [2] is T2, human IL2Rα (human, UniProt P01589 22-213, limits assumed).
T2 construct: also called IL2α; CD25
T2 sequence (looked up): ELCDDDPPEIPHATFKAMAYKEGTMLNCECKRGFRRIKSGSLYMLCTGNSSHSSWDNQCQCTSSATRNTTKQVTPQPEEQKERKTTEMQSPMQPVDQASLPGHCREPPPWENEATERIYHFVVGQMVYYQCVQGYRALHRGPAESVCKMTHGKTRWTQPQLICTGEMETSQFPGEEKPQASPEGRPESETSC
Kind of experiment: ELISA, receptor coated, anti-human Fc HRP. As for the experimental part: as §1

Experiment [3] has as its target T1, human IL2Rβ. Kind of experiment: SPR, receptor captured on Protein A chip, E. coli-produced IL2. On the procedure:
(§2) The assay was run with Biacore T200 control software version 2.0. For each cycle, 1 μg/mL of human IL2Rβ or IL2Rα was captured for 60 seconds at flow rate of 10 μL/min on flow cell 2 in 1×HBST buffer on Protein A sensor chip. Two-fold serial diluted HIS tag purified engineered IL2 mutant was injected onto both reference flow cell 1 and IL2Rβ or IL2Rα captured flow cell 2 for 150 seconds at flow rate of 30 μL/min followed by washing for 300 seconds. The flow cells were then regenerated with Glycine pH 2 for 40 seconds at a flow rate of 30 μL/mins. Eight concentration points from 0 to 100 nM were assayed for each IL2Rβ agonist clone 96-well plate format. The kinetics data was analyzed with Biacore T200 evaluation software 3000. The specific binding response unit was derived from subtraction of binding to reference flow cell 1 from target flow cell 2.

Experiment [4] concerns the target T2, human IL2Rα. The experiment is described as above. As for the experimental part: as §2

B1: EP081 (Fc fusion)
chain: ATPTSSSTKKTQLQLEHLLLDLQMILNGINNYKNPKLTRMLTFKFYMPKKATELKHLQCLEEELKPLEEVLNLAQSKNFHLGVGDTIDNINVLVKELKGSETTFMCEYADETATIVEFLNRWITFCQSIISTLTEPKSCDKTHTCPLCPAPEAAGGPSVFLFPPKPKDTLMISRTPEVTCVVVDVSHEDPEVKFNWYVDGVEVHNAKTKPREEQYNSTYRVVSVLTVLHQDWLNGKEYKCKVSNKALGAPIEKTISKAKGQPREPQVYTLPPSRDELTKNQVSLTCLVKGFYPSDIAVEWESNGQPENNYKATPPVLDSDGSFFLYSKLTVDKSRWQQGNVFSCSVMHEALHNHYTQKSLSLSPGK
For B1, in the experiment with human IL2Rβ [1], the 50% effective concentration (EC50) came to 200 pM and the “relative activity IL2Rβ (EC50: fold) against EP085” value was found to be 1530 fold. In the experiment with human IL2Rα [2], the EC50 came to 87 pM and the “relative activity IL2Rα (EC50: fold) against EP085” value is -1.73 fold.

B2: EP002 (ligand)
chain: APTSSSTKKTQLQLEHLLLDLQMILNGINNYKNPKLTRMLTFKFYMPKKATELKHLQCLEEELKPLEEVLNLAQSKNFHLEPSDVISNINVLVQELKGSETTFMCEYADETATIVEFLNRWITFCQSIISTLT
notes: also called E002; not shown: C-terminal Flag and 6xHis tags
As for B2, in the experiment with human IL2Rβ [3], binding was put at a Kd of 2370 pM, the koff stood at 0.00273 s⁻¹, the kon was 1.15e+06 M⁻¹ s⁻¹ and the “relative activity IL2Rβ (KD: fold) against WT IL2” value (“relative activity IL2Rβ (KD: fold)” for short) stood at 1830 fold. Further, in the experiment with human IL2Rα [4], the affinity, expressed as Kd, was 101000 pM and the “relative activity IL2Rα (KD: fold) against WT IL2” value (“relative activity IL2Rα (KD: fold)” for short) is -10.6 fold.

B3: EP005 (ligand)
chain: APTSSSTKKTQLQLEHLLLDLQMILNGINNYKNPKLTRMLTFKFYMPKKATELKHLQCLEEELKPLEEVLNLAQSKNFHLTAEDVVTNITVLVQELKGSETTFMCEYADETATIVEFLNRWITFCQSIISTLT
notes: not shown: C-terminal Flag and 6xHis tags
B3: in the experiment with human IL2Rβ [3], binding was characterised by a dissociation constant (Kd) of 885 pM, the koff was found to be 0.0054 s⁻¹, the kon worked out at 6.1e+06 M⁻¹ s⁻¹ and the “relative activity IL2Rβ (KD: fold)” value stood at 4910 fold. In the experiment with human IL2Rα [4], the Kd worked out at 12600 pM and the “relative activity IL2Rα (KD: fold)” value is -1.3 fold.

B4: EP006 (ligand)
chain: APTSSSTKKTQLQLEHLLLDLQMILNGINNYKNPKLTRMLTFKFYMPKKATELKHLQCLEEELKPLEEVLNLAQSKNFHLGVGDTIDNINVLVKELKGSETTFMCEYADETATIVEFLNRWITFCQSIISTLT
notes: also called EPIM-06; not shown: C-terminal Flag and 6xHis tags
In the case of B4, in the experiment with human IL2Rβ [3], the Kd was found to be 3100 pM, the koff was 0.00254 s⁻¹, the kon came out at 819000 M⁻¹ s⁻¹ and the “relative activity IL2Rβ (KD: fold)” value came to 1400 fold. Besides, in the experiment with human IL2Rα [4], binding was characterised by a dissociation constant (Kd) of 481000 pM and the “relative activity IL2Rα (KD: fold)” value was -50.6 fold.

B5: EP080 (Fc fusion)
chain: APTSSSTKETQLQLKHLLLDLQMILNGINNYKNPKLTRMLTFKFYMPKKATELKHLQCLEEELKPLEEVLNLAQSKNFHLKWGDAVSNARVLAGALKGSETTFMCEYADETATIVEFLNRWITFCQSIISTLTEPKSCDKTHTCPLCPAPEAAGGPSVFLFPPKPKDTLMISRTPEVTCVVVDVSHEDPEVKFNWYVDGVEVHNAKTKPREEQYNSTYRVVSVLTVLHQDWLNGKEYKCKVSNKALGAPIEKTISKAKGQPREPQVYTLPPSRDELTKNQVSLTCLVKGFYPSDIAVEWESNGQPENNYKATPPVLDSDGSFFLYSKLTVDKSRWQQGNVFSCSVMHEALHNHYTQKSLSLSPGK
For B5, in the experiment with human IL2Rβ [1], the midpoint of the response, the EC50, lay at 230 pM and the “relative activity IL2Rβ (EC50: fold) against EP085” value is 1280 fold. Also, in the experiment with human IL2Rα [2], a half-maximal response (EC50) required 56 pM and the “relative activity IL2Rα (EC50: fold) against EP085” value is -1.17 fold.

B6: EP001-Fc, Bivalent (EP079) (Fc fusion)
chain: APTSSSTKKTQLQLEHLLLDLQMILNGINNYKNPKLTRMLTFKFYMPKKATELKHLQCLEEELKPLEEVLNLAQSKNFHLTARDAVDNMRVIIQELKGSETTFMCEYADETATIVEFLNRWITFCQSIISTLTEPKSCDKTHTCPLCPAPEAAGGPSVFLFPPKPKDTLMISRTPEVTCVVVDVSHEDPEVKFNWYVDGVEVHNAKTKPREEQYNSTYRVVSVLTVLHQDWLNGKEYKCKVSNKALGAPIEKTISKAKGQPREPQVYTLPPSRDELTKNQVSLTCLVKGFYPSDIAVEWESNGQPENNYKATPPVLDSDGSFFLYSKLTVDKSRWQQGNVFSCSVMHEALHNHYTQKSLSLSPGK
notes: Human IgG1 with L234A, L235A, P329G
For B6, in the experiment with human IL2Rβ [1], the EC50 turned out to be 410 pM and the “relative activity IL2Rβ (EC50: fold) against EP085” value was 727 fold. Further, in the experiment with human IL2Rα [2], the response was half-maximal at 640 pM (EC50) and the “relative activity IL2Rα (EC50: fold) against EP085” value was -12.7 fold.

B7: EP003-Fc, Bivalent (EP082) (Fc fusion)
chain: APTSSSTKKTQLQLEHLLLDLQMILNGINNYKNPKLTRMLTFKFYMPKKATELKHLQCLEEELKPLEEVLNLAQSKNFHLGVTDSISNAIVLARELKGSETTFMCEYADETATIVEFLNRWITFCQSIISTLTEPKSCDKTHTCPLCPAPEAAGGPSVFLFPPKPKDTLMISRTPEVTCVVVDVSHEDPEVKFNWYVDGVEVHNAKTKPREEQYNSTYRVVSVLTVLHQDWLNGKEYKCKVSNKALGAPIEKTISKAKGQPREPQVYTLPPSRDELTKNQVSLTCLVKGFYPSDIAVEWESNGQPENNYKATPPVLDSDGSFFLYSKLTVDKSRWQQGNVFSCSVMHEALHNHYTQKSLSLSPGK
notes: as for B6
Consider B7, for which, in the experiment with human IL2Rβ [1], a half-maximal response (EC50) required 250 pM and the “relative activity IL2Rβ (EC50: fold) against EP085” value came to 1190 fold. Besides, in the experiment with human IL2Rα [2], a half-maximal effect (EC50) was put at 28 pM and the “relative activity IL2Rα (EC50: fold) against EP085” value worked out at 1.78 fold.

B8: EP004-Fc, Bivalent (EP078) (Fc fusion)
chain: APTSSSTKKTQLQLEHLLLDLQMILNGINNYKNPKLTRMLTFKFYMPKKATELKHLQCLEEELKPLEEVLNLAQSKNFHLCPTDTIENITVLIQELKGSETTFMCEYADETATIVEFLNRWITFCQSIISTLTEPKSCDKTHTCPLCPAPEAAGGPSVFLFPPKPKDTLMISRTPEVTCVVVDVSHEDPEVKFNWYVDGVEVHNAKTKPREEQYNSTYRVVSVLTVLHQDWLNGKEYKCKVSNKALGAPIEKTISKAKGQPREPQVYTLPPSRDELTKNQVSLTCLVKGFYPSDIAVEWESNGQPENNYKATPPVLDSDGSFFLYSKLTVDKSRWQQGNVFSCSVMHEALHNHYTQKSLSLSPGK
notes: as for B6
For the molecule B8, in the experiment with human IL2Rβ [1], the EC50 stood at 2100 pM and the “relative activity IL2Rβ (EC50: fold) against EP085” value was 142 fold. Moreover, in the experiment with human IL2Rα [2], it took 41 pM to reach a half-maximal effect (EC50) and the “relative activity IL2Rα (EC50: fold) against EP085” value was 1.24 fold.

B9: EP083 (Fc fusion)
chain: APTSSSTKKTQLQLEHLLLDLQMILNGINNYKNPKLTEMLTFKFYMPKKATELKHLQCLEEELKPLEEVLNLAQSKNFHLEPSDVISNINVLVQELKGSETTFMCEYADETATIVEFLNRWITFCQSIISTLTEPKSCDKTHTCPLCPAPEAAGGPSVFLFPPKPKDTLMISRTPEVTCVVVDVSHEDPEVKFNWYVDGVEVHNAKTKPREEQYNSTYRVVSVLTVLHQDWLNGKEYKCKVSNKALGAPIEKTISKAKGQPREPQVYTLPPSRDELTKNQVSLTCLVKGFYPSDIAVEWESNGQPENNYKATPPVLDSDGSFFLYSKLTVDKSRWQQGNVFSCSVMHEALHNHYTQKSLSLSPGK
For the molecule B9, in the experiment with human IL2Rβ [1], the response was half-maximal at 280 pM (EC50) and the “relative activity IL2Rβ (EC50: fold) against EP085” value worked out at 1080 fold. In the experiment with human IL2Rα [2], it took 46 pM to reach a half-maximal effect (EC50) and the “relative activity IL2Rα (EC50: fold) against EP085” value came out at 1.09 fold.

B10: EP084 (Fc fusion)
chain: APTSSSTKKTQLQLEHLLLDLQMILNGINNYKNPKLTRMLTFKFYMPKKATELKHLQCLEEELKPLEEVLNLAQSKNFHLTAEDVVTNITVLVQELKGSETTFMCEYADETATIVEFLNRWITFCQSIISTLTEPKSCDKTHTCPLCPAPEAAGGPSVFLFPPKPKDTLMISRTPEVTCVVVDVSHEDPEVKFNWYVDGVEVHNAKTKPREEQYNSTYRVVSVLTVLHQDWLNGKEYKCKVSNKALGAPIEKTISKAKGQPREPQVYTLPPSRDELTKNQVSLTCLVKGFYPSDIAVEWESNGQPENNYKATPPVLDSDGSFFLYSKLTVDKSRWQQGNVFSCSVMHEALHNHYTQKSLSLSPGK
As to B10, in the experiment with human IL2Rβ [1], the EC50 amounted to 2600 pM and the “relative activity IL2Rβ (EC50: fold) against EP085” value was 117 fold. Also, in the experiment with human IL2Rα [2], the EC50 amounted to 41 pM and the “relative activity IL2Rα (EC50: fold) against EP085” value amounted to 1.23 fold.
